Laboratory results as given in the supplement of paper PMC5998384.

How the values were obtained:
[1] = tested on: HeLa Kyoto; assay: solubility change mitosis vs G1/S (difference of NP-40 vs SDS log2 ratios) (log2 ratio difference); higher = more soluble in mitosis
[2] = tested on: HeLa Kyoto; assay: solubility in G1/S (NP-40 vs SDS abundance) (log2 ratio); higher = more soluble; conditions: cell cycle stage: G1/S
[3] = tested on: HeLa Kyoto; assay: melting temperature (median over replicates), in situ; higher = more thermally stable
[4] = tested on: HeLa Kyoto; assay: thermal stability score vs G1/S (z-score of summed log2 fold changes over temperatures); higher = more thermally stable than in G1/S
[5] = cell cycle stage: early G1 (4.5 h after nocodazole release)
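Throughout, for melting temperature (median over replicates), in situ: HeLa Kyoto cells synchronized by double thymidine or nocodazole block, proteins quantified by TMT10plex mass spectrometry, three independent biological replicates.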
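Throughout, for solubility change mitosis vs G1/S (difference of NP-40 vs SDS log2 ratios): synchronized HeLa Kyoto cells (double thymidine block for G1/S, nocodazole release for mitosis), protein amounts in NP-40 versus SDS lysates quantified by mass spectrometry, three biological replicates.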
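Throughout, for solubility in G1/S (NP-40 vs SDS abundance): HeLa Kyoto cells arrested at G1/S by double thymidine block, proteins quantified by TMT10plex mass spectrometry in mild NP-40 versus SDS extracts, three biological replicates.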
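Throughout, for thermal stability score vs G1/S (z-score of summed log2 fold changes over temperatures): synchronized HeLa Kyoto cells, proteins quantified by TMT10plex mass spectrometry, three biological replicates, mitosis taken 0.5 h after nocodazole release, G1/S directly after double thymidine block.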

Sequence of IDH3B (chain, as listed by the source): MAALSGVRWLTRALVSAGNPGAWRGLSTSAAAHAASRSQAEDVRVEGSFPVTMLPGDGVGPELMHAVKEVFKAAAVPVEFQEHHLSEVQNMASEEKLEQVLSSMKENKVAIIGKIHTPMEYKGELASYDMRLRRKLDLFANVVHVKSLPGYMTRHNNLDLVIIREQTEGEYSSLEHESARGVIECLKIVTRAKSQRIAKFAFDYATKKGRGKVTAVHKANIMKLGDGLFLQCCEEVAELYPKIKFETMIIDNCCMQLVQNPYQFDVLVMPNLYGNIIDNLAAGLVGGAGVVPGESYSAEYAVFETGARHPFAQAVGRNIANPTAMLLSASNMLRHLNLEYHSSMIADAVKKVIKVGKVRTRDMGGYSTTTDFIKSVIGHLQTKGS

Substance | solubility change mitosis (log2) [1] | solubility in G1/S (log2) [2] | melting temperature ([3]; cell cycle stage: G1/S) [°C] | melting temperature ([3]; cell cycle stage: mitosis) [°C] | thermal stability score [4, 5] | thermal stability score ([4]; cell cycle stage: mitosis)
MTLTERLREKISRAFYNHGLLCASYPIPIILFTGFCILACCYPLLKLPLPGTGPVEFTTPVKDYSPPPVDSDRKQGEPTEQPEWYVGAPVAYVQQIFVKSSVFPWHKNLLAVDVFRSPLSRAFQLVEEIRNHVLRDSSGIRSLEELCLQVTDLLPGLRKLRNLLPEHGCLLLSPGNFWQNDWERFHADPDIIGTIHQHEPKTLQTSATLKDLLFGVPGKYSGVSLYTRKRMVSYTITLVFQHYHAKFLGSLRARLMLLHPSPNCSLRAESLVHVHFKEEIGVAELIPLVTTYIILFAYIYFSTRKIDMVKSKWGLALAAVVTVLSSLLMSVGLCTLFGLTPTLNGGEIFPYLVVVIGLENVLVLTKSVVSTPVDLEVKLRIAQGLSSESWSIMKNMATELGIILIGYFTLVPAIQEFCLFAVVGLVSDFFLQMLFFTTVLSIDIRRMELADLNKRLPPEACLPSAKPVGQPTRYERQLAVRPSTPHTITLQPSSFRNLRLPKRLRVVYFLARTRLAQRLIMAGTVVWIGILVYTDPAGLRNYLAAQVTEQSPLGEGALAPMPVPSGMLPPSHPDPAFSIFPPDAPKLPENQTSPGESPERGGPAEVVHDSPVPEVTWGPEDEELWRKLSFRHWPTLFSYYNITLAKRYISLLPVIPVTLRLNPREALEGRHPQDGRSAWPPPGPIPAGHWEAGPKGPGGVQAHGDVTLYKVAALGLATGIVLVLLLLCLYRVLCPRNYGQLGGGPGRRRRGELPCDDYGYAPPETEIVPLVLRGHLMDIECLASDGMLLVSCCLAGHVCVWDAQTGDCLTRIPRPGRQRRDSGVGSGLEAQESWERLSDGGKAGPEEPGDSPPLRHRPRGPPPPSLFGDQPDLTCLIDTNFSAQPRSSQPTQPEPRHRAVCGRSRDSPGYDFSCLVQRVYQEEGLAAVCTPALRPPSPGPVLSQAPEDEGGSPEKGSPSLAWAPSAEGSIWSLELQGNLIVVGRSSGRLEVWDAIEGVLCCSSEEVSSGITALVFLDKRIVAARLNGSLDFFSLETHTALSPLQFRGTPGRGSSPASPVYSSSDTVACHLTHTVPCAHQKPITALKAAAGRLVTGSQDHTLRVFRLEDSCCLFTLQGHSGAITTVYIDQTMVLASGGQDGAICLWDVLTGSRVSHVFAHRGDVTSLTCTTSCVISSGLDDLISIWDRSTGIKFYSIQQDLGCGASLGVISDNLLVTGGQGCVSFWDLNYGDLLQTVYLGKNSEAQPARQILVLDNAAIVCNFGSELSLVYVPSVLEKLD [SCAP] | -0.108 | -0.105 | 53.4 | 52.8 | -0.535 | 0.3
MSSQSHPDGLSGRDQPVELLNPARVNHMPSTVDVATALPLQVAPSAVPMDLRLDHQFSLPVAEPALREQQLQQELLALKQKQQIQRQILIAEFQRQHEQLSRQHEAQLHEHIKQQQEMLAMKHQQELLEHQRKLERHRQEQELEKQHREQKLQQLKNKEKGKESAVASTEVKMKLQEFVLNKKKALAHRNLNHCISSDPRYWYGKTQHSSLDQSSPPQSGVSTSYNHPVLGMYDAKDDFPLRKTASEPNLKLRSRLKQKVAERRSSPLLRRKDGPVVTALKKRPLDVTDSACSSAPGSGPSSPNNSSGSVSAENGIAPAVPSIPAETSLAHRLVAREGSAAPLPLYTSPSLPNITLGLPATGPSAGTAGQQDAERLTLPALQQRLSLFPGTHLTPYLSTSPLERDGGAAHSPLLQHMVLLEQPPAQAPLVTGLGALPLHAQSLVGADRVSPSIHKLRQHRPLGRTQSAPLPQNAQALQHLVIQQQHQQFLEKHKQQFQQQQLQMNKIIPKPSEPARQPESHPEETEEELREHQALLDEPYLDRLPGQKEAHAQAGVQVKQEPIESDEEEAEPPREVEPGQRQPSEQELLFRQQALLLEQQRIHQLRNYQASMEAAGIPVSFGGHRPLSRAQSSPASATFPVSVQEPPTKPRFTTGLVYDTLMLKHQCTCGSSSSHPEHAGRIQSIWSRLQETGLRGKCECIRGRKATLEELQTVHSEAHTLLYGTNPLNRQKLDSKKLLGSLASVFVRLPCGGVGVDSDTIWNEVHSAGAARLAVGCVVELVFKVATGELKNGFAVVRPPGHHAEESTPMGFCYFNSVAVAAKLLQQRLSVSKILIVDWDVHHGNGTQQAFYSDPSVLYMSLHRYDDGNFFPGSGAPDEVGTGPGVGFNVNMAFTGGLDPPMGDAEYLAAFRTVVMPIASEFAPDVVLVSSGFDAVEGHPTPLGGYNLSARCFGYLTKQLMGLAGGRIVLALEGGHDLTAICDASEACVSALLGNELDPLPEKVLQQRPNANAVRSMEKVMEIHSKYWRCLQRTTSTAGRSLIEAQTCENEEAETVTAMASLSVGVKPAEKRPDEEPMEEEPPL [HDAC4] | -0.072 | 0.188 | 53.3 | 52.9 | -0.241 | 0.236
MGASARLLRAVIMGAPGSGKGTVSSRITTHFELKHLSSGDLLRDNMLRGTEIGVLAKAFIDQGKLIPDDVMTRLALHELKNLTQYSWLLDGFPRTLPQAEALDRAYQIDTVINLNVPFEVIKQRLTARWIHPASGRVYNIEFNPPKTVGIDDLTGEPLIQREDDKPETVIKRLKAYEDQTKPVLEYYQKKGVLETFSGTETNKIWPYVYAFLQTKVPQRSQKASVTP [AK3] | 0.00633 | 0.43 | 54.3 | 54.2 | -1.02 | -2.48
MAVATAAAVLAALGGALWLAARRFVGPRVQRLRRGGDPGLMHGKTVLITGANSGLGRATAAELLRLGARVIMGCRDRARAEEAAGQLRRELRQAAECGPEPGVSGVGELIVRELDLASLRSVRAFCQEMLQEEPRLDVLINNAGIFQCPYMKTEDGFEMQFGVNHLGHFLLTNLLLGLLKSSAPSRIVVVSSKLYKYGDINFDDLNSEQSYNKSFCYSRSKLANILFTRELARRLEGTNVTVNVLHPGIVRTNLGRHIHIPLLVKPLFNLVSWAFFKTPVEGAQTSIYLASSPEVEGVSGRYFGDCKEEELLPKAMDESVARKLWDISEVMVGLLK [RDH14] | 0.0299 | -0.158 | 51.8 | 51.6 | 0.98 | 0.294
MGNAAGSAEQPAGPAAPPPKQPAPPKQPMPAAGELEERFNRALNCMNLPPDKVQLLSQYDNEKKWELICDQERFQVKNPPAAYIQKLKSYVDTGGVSRKVAADWMSNLGFKRRVQESTQVLRELETSLRTNHIGWVQEFLNEENRGLDVLLEYLAFAQCSVTYDMESTDNGASNSEKNKPLEQSVEDLSKGPPSSVPKSRHLTIKLTPAHSRKALRNSRIVSQKDDVHVCIMCLRAIMNYQSGFSLVMNHPACVNEIALSLNNKNPRTKALVLELLAAVCLVRGGHDIILAAFDNFKEVCGEQHRFEKLMEYFRNEDSNIDFMVACMQFINIVVHSVENMNFRVFLQYEFTHLGLDLYLERLRLTESDKLQVQIQAYLDNIFDVGALLEDTETKNAVLEHMEELQEQVALLTERLRDAENESMAKIAELEKQLSQARKELETLRERFSESTAMGPSRRPPEPEKAPPAAPTRPSALELKVEELEEKGLIRILRGPGDAVSIEILPVAVATPSGGDAPTPGVPTGSPSPDLAPAAEPAPGAAPPPPPPLPGLPSPQEAPPSAPPQAPPLPGSPEPPPAPPLPGDLPPPPPPPPPPPGTDGPVPPPPPPPPPPPGGPPDALGRRDSELGPGVKAKKPIQTKFRMPLLNWVALKPSQITGTVFTELNDEKVLQELDMSDFEEQFKTKSQGPSLDLSALKSKAAQKAPSKATLIEANRAKNLAITLRKGNLGAERICQAIEAYDLQALGLDFLELLMRFLPTEYERSLITRFEREQRPMEELSEEDRFMLCFSRIPRLPERMTTLTFLGNFPDTAQLLMPQLNAIIAASMSIKSSDKLRQILEIVLAFGNYMNSSKRGAAYGFRLQSLDALLEMKSTDRKQTLLHYLVKVIAEKYPQLTGFHSDLHFLDKAGSVSLDSVLADVRSLQRGLELTQREFVRQDDCMVLKEFLRANSPTMDKLLADSKTAQEAFESVVEYFGENPKTTSPGLFFSLFSRFIKAYKKAEQEVEQWKKEAAAQEAGADTPGKGEPPAPKSPPKARRPQMDLISELKRRQQKEPLIYESDRDGAIEDIITVIKTVPFTARTGKRTSRLLCEASLGEEMPL [FMNL1] | -0.0294 | 0.507 | 47.7 | 48.1 | 1.48 | 2.85
IDH3B | -0.00994 | 0.298 | 54.2 | 53.5 | -1.39 | -2
MEELDGEPTVTLIPGVNSKKNQMYFDWGPGEMLVCETSFNKKEKSEMVPSCPFIYIIRKDVDVYSQILRKLFNESHGIFLGLQRIDEELTGKSRKSQLVRVSKNYRSVIRACMEEMHQVAIAAKDPANGRQFSSQVSILSAMELIWNLCEILFIEVAPAGPLLLHLLDWVRLHVCEVDSLSADVLGSENPSKHDSFWNLVTILVLQGRLDEARQMLSKEADASPASAGICRIMGDLMRTMPILSPGNTQTLTELELKWQHWHEECERYLQDSTFATSPHLESLLKIMLGDEAALLEQKELLSNWYHFLVTRLLYSNPTVKPIDLHYYAQSSLDLFLGGESSPEPLDNILLAAFEFDIHQVIKECSIALSNWWFVAHLTDLLDHCKLLQSHNLYFGSNMREFLLLEYASGLFAHPSLWQLGVDYFDYCPELGRVSLELHIERIPLNTEQKALKVLRICEQRQMTEQVRSICKILAMKAVRNNRLGSALSWSIRAKDAAFATLVSDRFLRDYCERGCFSDLDLIDNLGPAMMLSDRLTFLGKYREFHRMYGEKRFADAASLLLSLMTSRIAPRSFWMTLLTDALPLLEQKQVIFSAEQTYELMRCLEDLTSRRPVHGESDTEQLQDDDIETTKVEMLRLSLARNLARAIIREGSLEGS [NUP85] | 0.246 | -0.6 | 52.3 | 50.8 | -2.34 | -4.7
NUP188 | -0.108 | -0.299 | 51 | 49 | -2.04 | -2.93
GEMIN5 | -0.155 | -0.199 | 49.4 | 49.7 | -0.261 | 1.19
